Laboratory results from patent publication US20250019435A1 (ALBERT EINSTEIN COLLEGE OF MEDICINE, published 2025).
Numbering of substitutions follows the chain as printed. Names and notes keep the numbering of the source.

T1: PVR expressed on transduced cells (PVR-YFP) (UniProt P15151 21-417)
T1 construct: whole, on cells; On NIH 3T3 or Raji cells; also called PVR/3T3; PVR-YFP/3T3; not shown: YFP ('PVR-YFP ... fusion protein')
T1 sequence (looked up): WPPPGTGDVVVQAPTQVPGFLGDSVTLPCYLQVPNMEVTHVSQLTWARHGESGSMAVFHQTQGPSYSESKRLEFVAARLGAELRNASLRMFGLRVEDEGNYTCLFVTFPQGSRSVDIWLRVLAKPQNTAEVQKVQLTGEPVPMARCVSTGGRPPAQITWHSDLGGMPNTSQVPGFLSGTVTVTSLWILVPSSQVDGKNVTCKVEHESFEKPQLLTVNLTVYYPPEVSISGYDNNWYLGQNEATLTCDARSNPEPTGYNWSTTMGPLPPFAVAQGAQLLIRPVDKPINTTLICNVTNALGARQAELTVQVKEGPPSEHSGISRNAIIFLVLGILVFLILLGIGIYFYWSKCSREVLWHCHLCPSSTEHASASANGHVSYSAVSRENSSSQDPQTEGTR

T2: PVR-Ig fusion protein (UniProt P15151 27-343)
T2 construct: Bought (R&D Systems); also called PVR-Ig protein; not shown: Ig part, detected with anti-human IgG Fc
T2 sequence (looked up): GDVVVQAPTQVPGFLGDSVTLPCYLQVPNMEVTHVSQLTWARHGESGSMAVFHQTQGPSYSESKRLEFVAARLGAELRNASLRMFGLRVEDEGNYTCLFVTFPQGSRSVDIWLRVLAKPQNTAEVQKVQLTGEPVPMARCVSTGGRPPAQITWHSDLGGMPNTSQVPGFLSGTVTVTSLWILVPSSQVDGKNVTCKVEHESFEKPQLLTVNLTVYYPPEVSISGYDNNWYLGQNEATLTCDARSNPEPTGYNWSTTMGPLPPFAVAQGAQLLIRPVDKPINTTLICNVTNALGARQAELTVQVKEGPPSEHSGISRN

B1: anti-KIR2DL5 mAb clone B2A18 (antibody, V domains shown)
VH: QIQLVQSGPEVKKPGETVKISCKASGYTFTKYGMNWVKQAPGKGLKWMGWINTNTGESTYAEDFKGRFAFSLETSANTAFLQINNLKNEDTAAYFCARWGPYGSSLYYGMDYWGQGTSVTVS
VL: DIQMTQSSSSFSISLGDRVTITCRASEDLYNRLAWYQQKPGNAPRLLISGATSLETGVPSRFSGSGSGKDFTLSIPSVQTEDVGTYYCQQYRYTPWTFGGGTTLN
notes: also called B2A18, (IgG1, κ)
B2: Y328F (receptor)
receptor chain: HEGGQDKPLLSAWPSAVVPRGGHVTLLCRSRLGFTIFSLYKEDGVPVPELYNKIFWKSILMGPVTPAHAGTYRCRGSHPRSPIEWSAPSNPLVIVVTGLFGKPSLSAQPGPTVRTGENVTLSCSSRSSFDMYHLSREGRAHEPRLPAVPSVNGTFQADFPLGPATHGGTYTCFGSLHDSPYEWSDPSDPLLVSVTGNSSSSSSSPTEPSSKTGIRRHLHILIGTSVAIILFIILFFFLLHCCCSNKKNAAVMDQEPAGDRTVNREDSDDQDPQEVTYAQLDHCVFTQTKITSPSQRPKTPPTDTTMFMELPNAKPRSLSPAHKHHSQALRGSSRETTALSQNRVASSHVPAAGI
notes: also called KIR2DL5 Y328F (ITSM mutant) on transduced primary NK cells
B3: D2-deleted KIR2DL5 expressed on 3T3 cells (receptor)
chain: HEGGQDKPLLSAWPSAVVPRGGHVTLLCRSRLGFTIFSLYKEDGVPVPELYNKIFWKSILMGPVTPAHAGTYRCRGSHPRSPIEWSAPSNPLVIVVTGNSSSSSSSPTEPSSKTGIRRHLHILIGTSVAIILFIILFFFLLHCCCSNKKNAAVMDQEPAGDRTVNREDSDDQDPQEVTYAQLDHCVFTQTKITSPSQRPKTPPTDTTMYMELPNAKPRSLSPAHKHHSQALRGSSRETTALSQNRVASSHVPAAGI
notes: also called KIR2DL5 dD2
B4: anti-KIR2DL5 mAb clone B33C12 (antibody, V domains shown)
VH: QVQLQQSGAELVKPGASVKMSCKAFGYTFTSFPIEWMKQNHGKSLEWIGNFHPSNDDTKYNEKFNGKAKLTAETSSKTVYLELSRLTSDDSAVYYCARGSDYSFALDYWGQGTSVTVSS
VL: GIVLTQSPASLAVSLGQRATISCRASESVDSYGYSFMHWYQQKPGQPPKLLIYRASNLKSGIPARFSGSGSRTDFTLTINPVEADDVATYYCQQSNEDPWTFGGGTKLEIK
notes: also called B33C12 (IgG2a, κ)
B5: anti-KIR2DL5 mAb clone B11B4 (antibody, V domains shown)
VH: B4 VH with A9G, S54Y, S91C, A92S, A105G
VL: GIVLTQSPASLVVSLGQRATISCRASESVDSYGYSFMHWYQQKPGQPPKLLIYRASNLKSGIPARFSGSGCRTDFTLTINPVEADDVATYYCQQSNEDPWTFGGGTKAGN
notes: also called B11B4 (IgG2b, κ)
B6: D0-deleted KIR2DL5 expressed on 3T3 cells (receptor)
chain: GLFGKPSLSAQPGPTVRTGENVTLSCSSRSSFDMYHLSREGRAHEPRLPAVPSVNGTFQADFPLGPATHGGTYTCFGSLHDSPYEWSDPSDPLLVSVTGNSSSSSSSPTEPSSKTGIRRHLHILIGTSVAIILFIILFFFLLHCCCSNKKNAAVMDQEPAGDRTVNREDSDDQDPQEVTYAQLDHCVFTQTKITSPSQRPKTPPTDTTMYMELPNAKPRSLSPAHKHHSQALRGSSRETTALSQNRVASSHVPAAGI
notes: the signal peptide 1-21 is left out; also called KIR2DL5 dD0; DO-deleted KIR2DL5

Experiments:
[1] = biological target: T3, KIR2DL5A*005 allele expressed on 3T3 cells (human); experiment: flow cytometry, 3T3 cells expressing KIR2DL5 alleles, mAb 5 µg/ml
T3 construct: also called 2D5A*005

[2] = biological target: T4, KIR2DL5-Ig fusion protein (KIR2DL5 extracellular domain fused to human IgG1 Fc) (human, UniProt Q8N109 22-240); experiment: BLI, Octet RED96; KIR2DL5-Ig captured on anti-human Fc biosensors, mAb in solution; global 1:1 fit
T4 construct: A D0-only fusion (H22-A128) also exists; also called KIR2DL5-human Ig fusion protein; KIR2DL5 DO-D2-Ig; not shown: human IgG1 Fc tag
Method: Biolayer interferometry. The affinities of anti-KIR2DL5 mAbs were analyzed by biolayer interferometry using an Octet RED96 system (ForteBio, Pall LLC). Briefly, anti-human Fc capture biosensors (ForteBio, Pall LLC) were preloaded with KIR2DL5-Ig and then dipped into a solution containing mAb at 2-fold serial dilutions (from 200 to 1.5 μg/mL). Data were analyzed using Forte Pall (Port Washington, New York, USA) software 9.0. The global data fitting to a 1:1 binding model was used to estimate values for the Kₒₙ (association rate constant), Koff (dissociation rate constant), and KD (equilibrium dissociation constant).

[3] = biological target: B6; experiment: flow cytometry, transduced 3T3 cells
Excerpt: FIG. 15A-15E: Characterization of anti-KIR2DL5 specific monoclonal antibodies. (Related to FIGS. 8A-8D). (A) The protein sequence of KIR2DL5. The extracellular domain of KIR2DL5 was composed of tandem DO-D2 domains. The cytoplasmic tail of KIR2DL5 contained an immunoreceptor tyrosine-based inhibition motif (ITIM) and immunoreceptor tyrosine-based switch motif (ITSM). Domains were predicted and annotated based on UniProtKB (Q8N109). (B) The specificity of anti-KIR2DL5 mAbs. 3T3 cells transduced with indicated KIR family members were stained with 5 μg/ml of indicated anti-KIR2DL5 mAbs (open) or mIgG1 (shaded). (C, D) The affinity of anti-KIR2DL5 mAbs. C: Kinetic binding curves for F8B30 and B19C11. D: Data were acquired from kinetic binding curves detected by the Octet Red96 BLI instrument for indicated clones. (E) 3T3 cells transduced with DO-deleted (KIR2DL5 dD0) or D2-deleted KIR2DL5 (KIR2DL5 dD2) were stained with 5 μg/ml of indicated anti-KIR2DL5 mAbs. In B-E, data are representative of three independent experiments.

[4] = biological target: T1, PVR expressed on transduced cells …; experiment: confocal imaging of conjugates of transduced primary NK cells with PVR-YFP/Raji cells
Method: The KIR2DL5⁻ primary NK cells were transduced with WT KIR2DL5 or the indicated mutants, and then examined for protein expression with F8B30 (open) or mIgG1 (shaded). NC, negative control. Data are representative of 2 independent experiments. (B and C) Transduced primary NK cells were treated with (+) or without (−) pervanadate (VO₄) for 5 minutes. Cell lysates were immunoprecipitated with anti-KIR2DL5 antibodies. Phospho-tyrosine (4G10), SHP-1, SHP-2, and total KIR2DL5 were detected by immunoblots (B). Quantification of p-Tyr, SHP-1, and SHP-2 association with WT or mutant KIR2DL5 in VO₄-treated NK cells (C). WCL, whole-cell lysates. (D) Representative imaging of cell conjugates acquired upon the indicated transduced primary NK and PVR/Raji cell contact followed by staining with anti-KIR2DL5 mAb and DAPI. Scale bars: […]. (E) Lysis of scramble control or PVR^KO A427 (top) and Jurkat (bottom) by WT or mutant KIR2DL5-transduced primary NK cells at the indicated E/T ratios. Data are mean for duplicate measurements and representative of 3 independent experiments with 3 different donors. In A, and B, data are representative of 3 independent experiments. *P<0.05, **P<0.01, ***P<0.001, ****P<0.0001, by 1-way ANOVA (C), or paired Student's t test (D).
NK-Raji conjugation assay. […] Cell mixtures were then loaded onto poly-L-lysine-precoated slides and fixed with 4% formaldehyde at RT for 15 minutes. After blocking with 5% normal goat serum at RT for 1 hour, cells were stained with 20 µg/mL anti-KIR2DL5 antibodies (a mixture of 8 homemade clones) at 4° C. overnight and then with goat anti-mIgG (H+L) Alexa Flour 647 (Invitrogen) at RT for 2 hours. The cells were permeabilized by 0.1% Triton X-100 at RT for 15 minutes and stained with Alexa Flour Plus 405 Phalloidin (Life Technologies) for 1 hour at RT. The slides were then mounted by Gold Antifade Mountant without DAPI (Life Technologies). The mean pixel intensity of synapse and non-synapse was respectively measured and statistically analyzed. Images were acquired by Leica SP8 confocal microscope and processed by ImageJ (NIH).

[5] = biological target: T2, PVR-Ig fusion protein; experiment: flow cytometry, PVR-Ig on transduced 3T3 cells
Method: FIG. 10A-E: Allelic polymorphism affected PVR binding of KIR2DL5. (A) Flow cytometric analysis of PVR-Ig or CD112-Ig (open) or control hIg (shaded) binding to KIR2DL5/3T3. (B) Flow cytometric analysis of PVR-Ig binding to KIR2DL5/3T3 in the presence of increasing concentrations of F8B30. (C) KIR2DL5 bound to different sites of PVR from other receptors. PVR-Ig protein was preincubated with indicated His-tagged protein and then stained KIR2DL5/3T3 cells. […] (D) Flow cytometric analysis of PVR-Ig (open) or control hIg (shaded) binding on 3T3 cells expressing WT, DO-deleted, or D2-deleted KIR2DL5. Parental 3T3 cells were used as a negative control. (E) Flow cytometric analysis of PVR-Ig or control hIg (shaded) binding on 3T3 cells expressing different KIR2DL5 alleles. In A-E, data are representative of 2 independent experiments.
Fusion protein cell binding assays. PVR-Ig, CD112-Ig, or hIgG (R&D Systems) was incubated with corresponding 3T3 cells on ice for 45 minutes, followed by incubation with APC- or PE-conjugated anti-human IgG Fc antibody (1:100; clone HP6017, BioLegend) on ice for 30 minutes. Cells were then acquired on an LSR II flow cytometer (BD Biosciences). In the anti-KIR2DL5 mAb blocking assay, KIR2DL5/3T3 cells were preincubated with a serial concentration of anti-KIR2DL5 mAb F8B30 or mIgG1 on ice for 30 minutes. […]

| Binder | binding result [1] | Kd [2] [nM] | koff [2] [s⁻¹] | kon [2] [M⁻¹ s⁻¹] | binding result [3] | binding result [4] | binding result [5] |
| --- | --- | --- | --- | --- | --- | --- | --- |
| B1 | binds | 0.104 | 0.000175 | 1.68e+06 | no binding (tested: 5 µg/ml) | – | – |
| B2 | – | – | – | – | – | binds | – |
| B3 | – | – | – | – | – | – | no binding |
| B4 | binds | 0.359 | 0.000299 | 835000 | no binding (tested: 5 µg/ml) | – | – |
| B5 | – | 0.245 | 0.000202 | 825000 | no binding (tested: 5 µg/ml) | – | – |
| B6 | – | – | – | – | – | – | no binding |
